According to patent publication US20030012785A1 (WATSON PHARMACEUTICALS, published 2003):

Target: T1, IL-2 receptor (mouse, on CTLL-2 cells and murine splenocytes) (mouse, UniProt P01590 22-268; P16297 27-539; P34902 23-369)
T1 sequence (looked up) 1: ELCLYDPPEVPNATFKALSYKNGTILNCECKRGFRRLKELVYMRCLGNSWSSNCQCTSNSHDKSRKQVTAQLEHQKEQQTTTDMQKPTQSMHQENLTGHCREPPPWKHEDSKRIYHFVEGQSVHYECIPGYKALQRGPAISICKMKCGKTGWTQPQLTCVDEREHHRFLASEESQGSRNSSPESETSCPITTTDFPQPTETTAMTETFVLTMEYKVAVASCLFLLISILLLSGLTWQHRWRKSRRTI
T1 sequence (looked up) 2: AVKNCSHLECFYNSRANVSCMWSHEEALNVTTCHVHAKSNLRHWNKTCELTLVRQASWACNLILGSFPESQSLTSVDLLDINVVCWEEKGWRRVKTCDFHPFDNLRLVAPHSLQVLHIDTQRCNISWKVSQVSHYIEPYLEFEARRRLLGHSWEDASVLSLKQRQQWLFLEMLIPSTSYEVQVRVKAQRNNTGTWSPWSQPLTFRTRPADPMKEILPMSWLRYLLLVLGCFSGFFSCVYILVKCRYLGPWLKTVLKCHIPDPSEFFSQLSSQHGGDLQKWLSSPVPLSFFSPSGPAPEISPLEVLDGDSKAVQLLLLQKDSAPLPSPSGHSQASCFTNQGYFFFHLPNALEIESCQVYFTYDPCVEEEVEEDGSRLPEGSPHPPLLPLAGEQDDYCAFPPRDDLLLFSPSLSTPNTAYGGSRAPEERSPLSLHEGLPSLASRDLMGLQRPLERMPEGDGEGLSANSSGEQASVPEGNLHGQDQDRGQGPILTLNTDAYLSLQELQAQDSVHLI
T1 sequence (looked up) 3: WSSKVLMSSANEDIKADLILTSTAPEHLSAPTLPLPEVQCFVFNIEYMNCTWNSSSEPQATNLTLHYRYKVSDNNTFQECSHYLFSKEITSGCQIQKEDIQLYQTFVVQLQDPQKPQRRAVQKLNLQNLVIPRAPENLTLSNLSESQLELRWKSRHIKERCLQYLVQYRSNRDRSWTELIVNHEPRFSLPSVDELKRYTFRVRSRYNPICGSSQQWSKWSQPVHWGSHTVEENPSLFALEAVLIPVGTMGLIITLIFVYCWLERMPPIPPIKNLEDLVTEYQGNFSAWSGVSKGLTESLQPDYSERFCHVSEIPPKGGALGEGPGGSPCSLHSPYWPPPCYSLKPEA
Assay: cell-based or functional assay

## TGLNRILLGFLG [unconjugated peptide TT23]
  Percent inhibition of IL-2 induced proliferation of murine splenocytes (recombinant human IL-2, trypan blue viable cell counts, 48 hours); amount needed relative to PEG-TT23: ~100 fold
